T1: full-length human growth hormone receptor (hGHR) (human, UniProt P10912 19-638)
T1 sequence (looked up): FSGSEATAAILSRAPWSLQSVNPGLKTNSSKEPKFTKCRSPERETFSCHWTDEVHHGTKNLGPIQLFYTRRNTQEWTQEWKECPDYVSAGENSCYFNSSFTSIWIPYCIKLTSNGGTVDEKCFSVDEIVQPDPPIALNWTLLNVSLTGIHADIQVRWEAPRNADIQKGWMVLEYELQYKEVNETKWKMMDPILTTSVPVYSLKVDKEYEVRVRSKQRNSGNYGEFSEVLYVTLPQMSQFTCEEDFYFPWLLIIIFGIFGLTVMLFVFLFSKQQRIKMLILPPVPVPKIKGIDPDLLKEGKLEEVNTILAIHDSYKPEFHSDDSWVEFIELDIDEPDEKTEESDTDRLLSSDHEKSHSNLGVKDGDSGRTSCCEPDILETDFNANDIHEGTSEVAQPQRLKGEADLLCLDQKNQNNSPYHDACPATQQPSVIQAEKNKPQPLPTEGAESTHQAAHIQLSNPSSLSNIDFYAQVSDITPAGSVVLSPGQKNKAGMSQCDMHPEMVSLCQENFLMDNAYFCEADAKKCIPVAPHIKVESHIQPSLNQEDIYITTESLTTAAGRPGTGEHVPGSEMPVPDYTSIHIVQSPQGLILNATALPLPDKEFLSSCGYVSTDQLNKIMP


What follows are binders tested against T1, full-length human growth hormone … (assay: cell-based or functional assay).

| Binder | ED50, cell proliferation (MTT assay) of FDC-P1 cells transfected with hGHR |
| --- | --- |
| GHA protein mutant b (A13V, T27V, S79A, V90I, G161M, S184A) (ligand) FPTIPLSRLFDNVMLRAHRLHQLAFDVYQEFEEAYIPKEQKYSFLQNPQTSLCFSESIPTPSNREETQQKSNLELLRIALLLIQSWLEPIQFLRSVFANSLVYGASDSNVYDLLKDLEEGIQTLMGRLEDGSPRTGQIFKQTYSKFDTNSHNDDALLKNYMLLYCFRKDMDKVETFLRIVQCRAVEGSCGF | 320 |
| GHA protein mutant d (A13V, T27V, S55A, S79A, S85A, V90I, G161M, S184A) (ligand) FPTIPLSRLFDNVMLRAHRLHQLAFDVYQEFEEAYIPKEQKYSFLQNPQTSLCFAESIPTPSNREETQQKSNLELLRIALLLIQAWLEPIQFLRSVFANSLVYGASDSNVYDLLKDLEEGIQTLMGRLEDGSPRTGQIFKQTYSKFDTNSHNDDALLKNYMLLYCFRKDMDKVETFLRIVQCRAVEGSCGF | 260 |
| GHA protein mutant f (A13V, T27V, Y28F, F54Y, S55A, S79A, S85A, V90I, G161M, S184A) (ligand) FPTIPLSRLFDNVMLRAHRLHQLAFDVFQEFEEAYIPKEQKYSFLQNPQTSLCYAESIPTPSNREETQQKSNLELLRIALLLIQAWLEPIQFLRSVFANSLVYGASDSNVYDLLKDLEEGIQTLMGRLEDGSPRTGQIFKQTYSKFDTNSHNDDALLKNYMLLYCFRKDMDKVETFLRIVQCRAVEGSCGF | 230 |
